How the values were obtained:
Assay in all cases: cell-based or functional assay
[1] = target: T1, PCSK9-his (wild-type PCSK9, prepared by Akeso Biopharma) (human, UniProt Q8NBP7 31-692, limits assumed)
[2] = target: PCSK9(D374Y)-his (Acrobio, cat. no. PCY-H5225) (UniProt Q8NBP7 31-692)
[3] = target: T1, PCSK9-his (wild-type PCSK9, prepared by …); remark: listed apart in the source

Row | EC50 for inhibition of LDLR endocytosis by wild-type PCSK9 (BODIPY-LDL uptake, HepG2 cells) [1] | EC50 for inhibition of LDLR endocytosis by functionally enhanced mutant PCSK9 (PCSK9-D374Y) (BODIPY-LDL uptake, HepG2 cells) [2] | EC50 for MAB1 relieving the inhibition of LDL endocytosis in HepG2 cells by PCSK9 [3] | EC50 of MAB1 for inhibition of LDLR endocytosis by wild-type PCSK9 (BODIPY-LDL uptake, HepG2 cells) [1] | Binder
1 | 30.8 µg/mL | 1.26 µg/mL |  |  | evolocumab (purchased from AMGEN) (antibody, V domains shown) VH: QVQLVQSGAEVKKPGASVKVSCKASGYTLTSYGISWVRQAPGQGLEWMGWVSFYNGNTNYAQKLQGRGTMTTDPSTSTAYMELRSLRSDDTAVYYCARGYGMDVWGQGTTVTVSS VL: QSALTQPASVSGSPGQSITISCTGTSSDVGGYNSVSWYQQHPGKAPKLMIYEVSNRPSGVSNRFSGSKSGNTASLTISGLQAEDEADYYCNSYTSTSMVFGGGTKLTVL
2 |  |  | 13 µg/mL | 32.9 µg/mL | MAB1 (antibody, V domains shown) VH: EVQLVESGGGLVQPGRSLRLSCAASGFTFSSYSMNWVRQAPGKGLEWVSGISSSSSYISYADSVQGRFTISRDNGKNSLYLQMNSLRAEDTALYFCAREYDFWSAYYDAFDVWGQGTMVTVSS VL: QSELTQPRSVSGSPGQSVTISCTGTSRNIGGGNDVHWYQQHPGKAPKLLISGVIERSSGVPDRFSGSKSGNTASLTISGLQAEDEADYYCQSFDGSLSGSVFGTGTDVTVL
